Measured values reported in the supplement of paper PMC6757056.
± gives the standard deviation of the averaged measurements.

B1: library; a variant is named by its letters at N, in order (parent)
chain: GCUGUCACCGGAAUACCAGCAUCGUCUUGAUGCCCUUGGAAGUCCGGUCUGAUGAGUCCNNNNNGGACGAAACAGC

Legend:
[1] = variants of: B1; assay: FACS-Seq fitted mean relative fluorescence mCherry/BFP without ligand (log10 relative fluorescence); higher = higher reporter protein expression; conditions: HEK293T, ligand present: no
How it was run: (§1)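 Fluorescence comes from a normal fit to bin counts, normalized against controls. HEK293T libraries lentivirally given a ribozyme-switch mCherry reporter and an EF1α-BFP marker were enriched, incubated 48 h with or without ligand, and sorted by mCherry/BFP into 6 bins. Bin genomic DNA was PCR-amplified, barcoded and sequenced on MiSeq. The log10(mCherry/BFP) mean was scaled to five spiked-in control ribozymes.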

[2] = variants of: B1; assay: normalized RNA/DNA level with ligand (relative to sTRSVctl = 100) (log10 (% of sTRSVctl)); higher = less ribozyme self-cleavage, higher mRNA level; conditions: ligand concentration (+) RNA-Seq: 5 mM, HEK293T, reporter: mCherry (pCS4076), ligand present: yes
How it was run: (§2)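 Library plasmids carrying ribozyme switches linked to mCherry, or to eGFP in some ligand experiments, were transfected into HEK293T at 4 µg per 6-well well, with any ligand added 1 h earlier. Seventy-two hours on, total RNA was extracted with EDTA and reverse-transcribed, amplified, barcoded and sequenced. RNA level was RNA over DNA reads normalized to a spiked-in non-cleaving sequence or to the top sequences, then scaled and log-transformed. The top set was 25 sequences, the transform was ×100 and log10, and sequences needed ≥100 DNA reads.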

[3] = variants of: B1; assay: normalized RNA/DNA level without ligand (relative to sTRSVctl = 100) (log10 (% of sTRSVctl)); higher = less ribozyme self-cleavage, higher mRNA level; conditions: HEK293T, reporter: mCherry (pCS4076), ligand present: no
How it was run: as §2

[4] = variants of: B1; assay: FACS-Seq fitted mean relative fluorescence mCherry/BFP with ligand (log10 relative fluorescence); ligand concentration (+) FACS-Seq: 1 mM; higher = higher reporter protein expression; conditions: HEK293T, ligand present: yes
How it was run: as §1

Row | Variant | FACS-Seq fitted mean (log10) [1] | normalized RNA/DNA level with ligand (log10) [2] | normalized RNA/DNA level without ligand (log10) [3] | FACS-Seq fitted mean (log10) [4]
1 | GCUGUCACCGGAAUACCAGCAUCGUCUUGAUGCCCUUGGAAGUCCGGUCUGAUGAGUCCUGCGAGGACGAAACAGC [UGCGA] | 0.439 ± 0.02 | 1.9 ± 0.039 | 1.58 ± 0.06 | 0.659 ± 0.03
2 | GCUGUCACCGGAAUACCAGCAUCGUCUUGAUGCCCUUGGAAGUCCGGUCUGAUGAGUCCUGCGCGGACGAAACAGC [UGCGC] | 0.574 ± 0.085 | 2.04 ± 0.035 | 1.96 ± 0.15 | 0.522 ± 0.1
3 | GCUGUCACCGGAAUACCAGCAUCGUCUUGAUGCCCUUGGAAGUCCGGUCUGAUGAGUCCUGCGUGGACGAAACAGC [UGCGU] | 0.83 ± 0.044 | 1.97 ± 0.088 | 1.923 ± 0.018 | 0.761 ± 0.07
4 | GCUGUCACCGGAAUACCAGCAUCGUCUUGAUGCCCUUGGAAGUCCGGUCUGAUGAGUCCUGCCUGGACGAAACAGC [UGCCU] | 0.875 ± 0.16 | 2.08 ± 0.077 | 1.891 ± 0.007 | 0.867 ± 0.079
5 | GCUGUCACCGGAAUACCAGCAUCGUCUUGAUGCCCUUGGAAGUCCGGUCUGAUGAGUCCUGCCGGGACGAAACAGC [UGCCG] | 1.06 ± 0.058 | 2.04 ± 0.043 | 2.02 ± 0.055 | 0.883 ± 0.027
6 | GCUGUCACCGGAAUACCAGCAUCGUCUUGAUGCCCUUGGAAGUCCGGUCUGAUGAGUCCAGCCUGGACGAAACAGC [AGCCU] | 0.951 ± 0.011 | 1.98 ± 0.023 | 1.91 ± 0.11 | 1.06 ± 0.071
7 | GCUGUCACCGGAAUACCAGCAUCGUCUUGAUGCCCUUGGAAGUCCGGUCUGAUGAGUCCCGCUAGGACGAAACAGC [CGCUA] | 0.353 ± 0.072 | 1.87 ± 0.069 | 1.48 ± 0.041 | 0.612 ± 0.076
8 | GCUGUCACCGGAAUACCAGCAUCGUCUUGAUGCCCUUGGAAGUCCGGUCUGAUGAGUCCCGCUUGGACGAAACAGC [CGCUU] | 0.746 ± 0.19 | 1.99 ± 0.087 | 1.62 ± 0.075 | 0.896 ± 0.11
9 | GCUGUCACCGGAAUACCAGCAUCGUCUUGAUGCCCUUGGAAGUCCGGUCUGAUGAGUCCUGCUUGGACGAAACAGC [UGCUU] | 0.84 ± 0.14 | 1.99 ± 0.079 | 1.95 ± 0.054 | 0.851 ± 0.037
10 | GCUGUCACCGGAAUACCAGCAUCGUCUUGAUGCCCUUGGAAGUCCGGUCUGAUGAGUCCAGCGUGGACGAAACAGC [AGCGU] | -0.0881 ± 0.074 | 2.01 ± 0.027 | 1.82 ± 0.055 | 0.017 ± 0.14
11 | GCUGUCACCGGAAUACCAGCAUCGUCUUGAUGCCCUUGGAAGUCCGGUCUGAUGAGUCCAGCGCGGACGAAACAGC [AGCGC] | 0.459 ± 0.1 | 2.058 ± 0.016 | 1.98 ± 0.047 | 0.52 ± 0.18
12 | GCUGUCACCGGAAUACCAGCAUCGUCUUGAUGCCCUUGGAAGUCCGGUCUGAUGAGUCCAGCGAGGACGAAACAGC [AGCGA] | 0.281 ± 0.033 | 1.99 ± 0.025 | 1.68 ± 0.058 | 0.503 ± 0.017
13 | GCUGUCACCGGAAUACCAGCAUCGUCUUGAUGCCCUUGGAAGUCCGGUCUGAUGAGUCCCGCCUGGACGAAACAGC [CGCCU] | 0.291 ± 0.031 | 2.08 ± 0.074 | 1.78 ± 0.12 | 0.38 ± 0.021
14 | GCUGUCACCGGAAUACCAGCAUCGUCUUGAUGCCCUUGGAAGUCCGGUCUGAUGAGUCCCGCGAGGACGAAACAGC [CGCGA] | 0.995 ± 0.15 | 1.97 ± 0.12 | 1.767 ± 0.014 | 0.923 ± 0.055
15 | GCUGUCACCGGAAUACCAGCAUCGUCUUGAUGCCCUUGGAAGUCCGGUCUGAUGAGUCCCGCGUGGACGAAACAGC [CGCGU] | 0.348 ± 0.12 | 1.91 ± 0.11 | 1.842 ± 0.0033 | 0.441 ± 0.23
16 | GCUGUCACCGGAAUACCAGCAUCGUCUUGAUGCCCUUGGAAGUCCGGUCUGAUGAGUCCAGCUAGGACGAAACAGC [AGCUA] | 0.662 ± 0.064 | 2.03 ± 0.037 | 1.76 ± 0.044 | 0.7922 ± 0.0018
17 | GCUGUCACCGGAAUACCAGCAUCGUCUUGAUGCCCUUGGAAGUCCGGUCUGAUGAGUCCAGCUCGGACGAAACAGC [AGCUC] | 0.692 ± 0.15 | 2.04 ± 0.2 | 1.9 ± 0.046 | 0.565 ± 0.047
18 | GCUGUCACCGGAAUACCAGCAUCGUCUUGAUGCCCUUGGAAGUCCGGUCUGAUGAGUCCAGGAAGGACGAAACAGC [AGGAA] | 0.0559 ± 0.0084 | 1.85 ± 0.12 | 1.17 ± 0.079 | 0.552 ± 0.029
